Measured values published in IntAct's records for PubMed 20511297.

B1: Thioredoxin-like protein CITRX, chloroplastic (Arabidopsis thaliana (Mouse-ear cress)), Q9M7X9 (parent)
chain: MALVQSRTFPHLNTPLSPILSSLHAPSSLFIRREIRPVAAPFSSSTAGNLPFSPLTRPRKLLCPPPRGKFVREDYLVKKLSAQELQELVKGDRKVPLIVDFYATWCGPCILMAQELEMLAVEYESNAIIVKVDTDDEYEFARDMQVRGLPTLFFISPDPSKDAIRTEGLIPLQMMHDIIDNEM
partner: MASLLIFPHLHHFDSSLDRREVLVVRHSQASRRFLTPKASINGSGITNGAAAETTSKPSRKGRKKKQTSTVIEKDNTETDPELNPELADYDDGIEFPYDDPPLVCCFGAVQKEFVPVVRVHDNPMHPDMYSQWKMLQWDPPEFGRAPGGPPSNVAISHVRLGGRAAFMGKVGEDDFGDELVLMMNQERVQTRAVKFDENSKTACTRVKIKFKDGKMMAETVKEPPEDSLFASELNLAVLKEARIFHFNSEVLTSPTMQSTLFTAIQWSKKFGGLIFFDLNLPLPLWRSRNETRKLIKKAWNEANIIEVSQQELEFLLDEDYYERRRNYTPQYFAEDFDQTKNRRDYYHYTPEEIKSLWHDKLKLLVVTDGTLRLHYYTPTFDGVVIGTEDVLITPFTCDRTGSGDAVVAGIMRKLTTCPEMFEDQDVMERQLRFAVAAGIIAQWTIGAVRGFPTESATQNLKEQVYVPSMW
B2: Thioredoxin-like protein CITRX, chloroplastic (Arabidopsis thaliana (Mouse-ear cress)), Q9M7X9 (parent)
chain: B1 chain
partner: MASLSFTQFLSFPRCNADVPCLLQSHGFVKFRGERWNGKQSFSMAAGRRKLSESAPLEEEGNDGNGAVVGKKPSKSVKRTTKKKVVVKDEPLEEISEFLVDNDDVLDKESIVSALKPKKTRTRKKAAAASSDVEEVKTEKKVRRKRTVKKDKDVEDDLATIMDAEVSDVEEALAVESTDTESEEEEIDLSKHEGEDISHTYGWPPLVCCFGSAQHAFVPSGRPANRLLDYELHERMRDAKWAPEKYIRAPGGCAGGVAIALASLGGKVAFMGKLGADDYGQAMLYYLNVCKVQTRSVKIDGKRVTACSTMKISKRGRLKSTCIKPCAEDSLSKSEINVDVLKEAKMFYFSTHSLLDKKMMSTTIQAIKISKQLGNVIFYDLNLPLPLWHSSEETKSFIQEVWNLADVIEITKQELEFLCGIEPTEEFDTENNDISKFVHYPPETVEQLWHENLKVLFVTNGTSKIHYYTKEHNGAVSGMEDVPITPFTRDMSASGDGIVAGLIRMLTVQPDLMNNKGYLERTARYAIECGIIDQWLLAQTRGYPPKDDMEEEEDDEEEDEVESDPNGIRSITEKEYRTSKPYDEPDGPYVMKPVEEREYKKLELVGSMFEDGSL
B3: Fructokinase-like 2, chloroplastic (Arabidopsis thaliana (Mouse-ear cress)), F4I0K2 (parent)
chain: B2 partner
partner: B1 chain
B4: Fructokinase-like 1, chloroplastic (Arabidopsis thaliana (Mouse-ear cress)), Q9M394 (parent)
chain: B1 partner
partner: B1 chain

Variants of: B1
Settings: with sckl1_arath FLN1, Q9M394

Variant | effect of a mutation on the interaction
MALVQSRTFPHLNTPLSPILSSLHAPSSLFIRREIRPVAAPFSSSTAGNLPFSPLTRPRKLLCPPPRGKFVREDYLVKKLSAQELQELVKGDRKVPLIVDFYATWSGPCILMAQELEMLAVEYESNAIIVKVDTDDEYEFARDMQVRGLPTLFFISPDPSKDAIRTEGLIPLQMMHDIIDNEM [C106S] | decreasing interaction

Variants of: B2
Settings: with sckl2_arath FLN2, F4I0K2

Variant | effect of a mutation on the interaction
MALVQSRTFPHLNTPLSPILSSLHAPSSLFIRREIRPVAAPFSSSTAGNLPFSPLTRPRKLLCPPPRGKFVREDYLVKKLSAQELQELVKGDRKVPLIVDFYATWSGPCILMAQELEMLAVEYESNAIIVKVDTDDEYEFARDMQVRGLPTLFFISPDPSKDAIRTEGLIPLQMMHDIIDNEM [C106S] | decreasing interaction

Variants of: B3
Settings: with citrx_arath CITRX, Q9M7X9

Variant | effect of a mutation on the interaction
C208A | decreasing interaction
C209A | decreasing interaction
C208A;C209A | disrupting interaction

Variants of: B4
Settings: with citrx_arath CITRX, Q9M7X9

Variant | effect of a mutation on the interaction
MASLLIFPHLHHFDSSLDRREVLVVRHSQASRRFLTPKASINGSGITNGAAAETTSKPSRKGRKKKQTSTVIEKDNTETDPELNPELADYDDGIEFPYDDPPLVCAFGAVQKEFVPVVRVHDNPMHPDMYSQWKMLQWDPPEFGRAPGGPPSNVAISHVRLGGRAAFMGKVGEDDFGDELVLMMNQERVQTRAVKFDENSKTACTRVKIKFKDGKMMAETVKEPPEDSLFASELNLAVLKEARIFHFNSEVLTSPTMQSTLFTAIQWSKKFGGLIFFDLNLPLPLWRSRNETRKLIKKAWNEANIIEVSQQELEFLLDEDYYERRRNYTPQYFAEDFDQTKNRRDYYHYTPEEIKSLWHDKLKLLVVTDGTLRLHYYTPTFDGVVIGTEDVLITPFTCDRTGSGDAVVAGIMRKLTTCPEMFEDQDVMERQLRFAVAAGIIAQWTIGAVRGFPTESATQNLKEQVYVPSMW [C106A] | decreasing interaction
MASLLIFPHLHHFDSSLDRREVLVVRHSQASRRFLTPKASINGSGITNGAAAETTSKPSRKGRKKKQTSTVIEKDNTETDPELNPELADYDDGIEFPYDDPPLVASFGAVQKEFVPVVRVHDNPMHPDMYSQWKMLQWDPPEFGRAPGGPPSNVAISHVRLGGRAAFMGKVGEDDFGDELVLMMNQERVQTRAVKFDENSKTACTRVKIKFKDGKMMAETVKEPPEDSLFASELNLAVLKEARIFHFNSEVLTSPTMQSTLFTAIQWSKKFGGLIFFDLNLPLPLWRSRNETRKLIKKAWNEANIIEVSQQELEFLLDEDYYERRRNYTPQYFAEDFDQTKNRRDYYHYTPEEIKSLWHDKLKLLVVTDGTLRLHYYTPTFDGVVIGTEDVLITPFTCDRTGSGDAVVAGIMRKLTTCPEMFEDQDVMERQLRFAVAAGIIAQWTIGAVRGFPTESATQNLKEQVYVPSMW [C105A;C106S] | disrupting interaction
